According to paper PMC11858715 (Molecules, 2025):

T1: sense peptide S2 (YIYRNYPDF), ammodytoxin A segment from position 115 to 124 (Vipera ammodytes)
T1 peptide: YIYRNYPDF


Key:
Test in all cases: other fluorescence titration
Details in all cases: both partners purified
[1] = molecular target: T1, sense peptide S2 (YIYRNYPDF), …
[2] = molecular target: T1, sense peptide S2 (YIYRNYPDF), …
[3] = molecular target: T2, sense peptide S1 ([…]), ammodytoxin A segment from position 6 to 11 (Vipera ammodytes)
T2 construct: source: synthetic peptide, bought: GenScript Biotech B.V

Binder | Kd [1] | stoichiometry N [2] | Kd [3]
INISIVGVK (designed binder) [antisense peptide S2A1 (INISIVGVK)] | 1.1 µM | 1 | –
VNISVIGIK (designed binder) [antisense peptide S2A2 (VNISVIGIK)] | 8.9 µM | 1 | –
SHHYEP (designed binder, source: synthetic peptide, bought: GenScript Biotech B.V) [antisense peptide S1A1 (SHHYEP)] | – | – | 4.9 µM
SHHYSP (designed binder) [antisense peptide S1A2 (SHHYSP)] | – | – | 1.4 µM
